From publication PMC11513116 come the findings set out here.

“And” between values parts separate entries of the source, which are not always exact repeats. Equal values may be shown once.

What is called stoichiometry N is the number of molecules, sites or subunits per partner or assembly.

The assay concerns the target GCSC1-GFP fusion protein (UBIpro::GCSC1-GFP) (rice (variety Lemont)). Description: native gel or EMSA. On the technique in general: In EMSA bound probe runs differently from free probe, usually more slowly.

For the substance “GCSC1-GFP fusion protein (UBIpro::GCSC1-GFP) (natural protein)”, the stoichiometry N is 2 and 4.
